Data as given in US20190023748A1 (NAVIGEN, published 2019).
Bridge positions count the residues as written; N and C are the ends. Square brackets hold non-standard residues; d marks the D form. Primed or numbered codes have the meaning given here. PEG4′ = not defined here

Assays:
Assay in all cases: cell-based or functional assay
[1] = biological target: HIV-1 gp41 of strain JRFL (HIV-1 strain JRFL)
[2] = biological target: HIV-1 gp41 of isolate 0503M02138 (AE) (HIV-1 isolate 0503M02138)
[3] = biological target: HIV-1 gp41 of isolate US1/GS0004 (clade B) (HIV-1 isolate US1/GS0004)
[4] = biological target: HIV-1 gp41 of isolate CAM0013 (AG) (HIV-1 isolate CAM0013)
[5] = biological target: HIV-1 gp41 of isolate BZ167 (clade B) (HIV-1 isolate BZ167)
[6] = biological target: HIV-1 gp41 of isolate PBL286 (clade C) (HIV-1 isolate PBL286)
[7] = biological target: HIV-1 gp41 of isolate NP1251 (AE) (HIV-1 isolate NP1251)
[8] = biological target: HIV-1 gp41 of isolate NP1538 (clade B) (HIV-1 isolate NP1538)
[9] = biological target: HIV-1 gp41 of isolate CAM0015 (AG) (HIV-1 isolate CAM0015)
[10] = biological target: HIV-1 gp41 of isolate D26830M4 (clade D) (HIV-1 isolate D26830M4)
[11] = biological target: HIV-1 gp41 of isolate 20635-4 (clade C) (HIV-1 isolate 20635-4)
[12] = biological target: HIV-1 gp41 of isolate CM240/GS022 (AE) (HIV-1 isolate CM240/GS022)
[13] = biological target: HIV-1 gp41 of isolate 57128 (clade D) (HIV-1 isolate 57128)
[14] = biological target: HIV-1 gp41 of isolate KNH1144 (clade A) (HIV-1 isolate KNH1144)
[15] = biological target: HIV-1 gp41 of isolate BK132/GS009 (clade B) (HIV-1 isolate BK132/GS009)
[16] = biological target: HIV-1 gp41 of isolate BX08 (clade B) (HIV-1 isolate BX08)
[17] = biological target: HIV-1 gp41 of isolate J32228M4 (clade D) (HIV-1 isolate J32228M4)
[18] = biological target: HIV-1 gp41 of isolate KER2018 (clade A) (HIV-1 isolate KER2018)
[19] = biological target: HIV-1 gp41 of isolate CAM0014 (AG) (HIV-1 isolate CAM0014)
[20] = biological target: HIV-1 gp41 of isolate CAM0005 (AG) (HIV-1 isolate CAM0005)
[21] = biological target: HIV-1 gp41 of isolate NI1149 (AE) (HIV-1 isolate NI1149)
[22] = biological target: HIV-1 gp41 of isolate 56313 (clade C) (HIV-1 isolate 56313)
[23] = biological target: HIV-1 gp41 of isolate NI1052 (AE) (HIV-1 isolate NI1052)
[24] = biological target: HIV-1 gp41 of isolate A07412M1 (clade D) (HIV-1 isolate A07412M1)
[25] = biological target: HIV-1 gp41 of isolate PBL288 (clade C) (HIV-1 isolate PBL288)
[26] = biological target: HIV-1 gp41 of isolate KSM4030 (clade A) (HIV-1 isolate KSM4030)
[27] = biological target: HIV-1 gp41 of isolate A03349M1 (clade D) (HIV-1 isolate A03349M1)
[28] = biological target: HIV-1 gp41 of isolate 3343IN (clade B) (HIV-1 isolate 3343IN)
[29] = biological target: HIV-1 gp41 of isolate E08364M4 (clade D) (HIV-1 isolate E08364M4)
[30] = biological target: HIV-1 gp41 of isolate 301965 (clade D) (HIV-1 isolate 301965)

B1: CPT31 (cholesterol-PIE12-2-trimer with PEG32 fourth-arm spacer) (peptide)
peptide: Ac-[dH][dP][dC][dD][dY][dP][dE][dW][dQ][dW][dL][dC][dE][dL]G[PEG4′]K-NH2
modifications: disulfide 3-12 (inferred); not fully specified (some residues); numbers in words are those of the source; also: PIE12-2 trimer on scaffold, fourth arm PEG28 + PEG4 with cholesteryl carbamate
B1 was tested, and the “Antiviral potency, IC50, JRFL pseudovirion entry assay” value [1] was 0.015 nM, the “1 nM inhibition” value [2] was 95.2% and the “10 nM inhibition” value [2] was 98%. The “1 nM inhibition” value [3] was 95.3%, the “10 nM inhibition” value [3] was 97.7% and the “1 nM inhibition” value [4] was 98.4%. For the same binder, the “10 nM inhibition” value [4] was 99.7%, the “1 nM inhibition” value [5] was 99.4% and the “10 nM inhibition” value [5] was 99.8%. For the same binder, the “1 nM inhibition” value [6] was 95.8%, the “10 nM inhibition” value [6] was 99% and the “1 nM inhibition” value [7] was 97%. For the same binder, the “10 nM inhibition” value [7] was 98.4%, the “1 nM inhibition” value [8] was 95% and the “10 nM inhibition” value [8] was 99.4%. For the same binder, the “1 nM inhibition” value [9] was 96%, the “10 nM inhibition” value [9] was 97% and the “1 nM inhibition” value [10] was 95.3%. For the same binder, the “10 nM inhibition” value [10] was 98.5%, the “1 nM inhibition” value [11] was 99% and the “10 nM inhibition” value [11] was 99.6%. For the same binder, the “1 nM inhibition” value [12] was 83.8%, the “10 nM inhibition” value [12] was 95% and the “1 nM inhibition” value [13] was 35.2%. The “10 nM inhibition” value [13] was 37.3%, the “1 nM inhibition” value [14] was 78.2% and the “10 nM inhibition” value [14] was 80.6%. For the same binder, the “1 nM inhibition” value [15] was 99.7%, the “10 nM inhibition” value [15] was 99.8% and the “1 nM inhibition” value [16] was 94.2%. For the same binder, the “10 nM inhibition” value [16] was 99.5%, the “1 nM inhibition” value [17] was 96.1% and the “10 nM inhibition” value [17] was 98%. For the same binder, the “1 nM inhibition” value [18] was 94.8%, the “10 nM inhibition” value [18] was 97.5% and the “1 nM inhibition” value [19] was 98.8%. The “10 nM inhibition” value [19] was 99.5%, the “1 nM inhibition” value [20] was 98.4% and the “10 nM inhibition” value [20] was 99.8%. The “1 nM inhibition” value [21] was 92.9%, the “10 nM inhibition” value [21] was 97.4% and the “1 nM inhibition” value [22] was 97.9%. The “10 nM inhibition” value [22] was 99.3%, the “1 nM inhibition” value [23] was 98% and the “10 nM inhibition” value [23] was 99.7%. For the same binder, the “1 nM inhibition” value [24] was 92%, the “10 nM inhibition” value [24] was 96.7% and the “1 nM inhibition” value [25] was 3%. For the same binder, the “10 nM inhibition” value [25] was 12%, the “1 nM inhibition” value [26] was 93.6% and the “10 nM inhibition” value [26] was 95.6%. The “1 nM inhibition” value [27] was 93.6%, the “10 nM inhibition” value [27] was 99.5% and the “1 nM inhibition” value [28] was 97.6%. For the same binder, the “10 nM inhibition” value [28] was 99.1%, the “1 nM inhibition” value [29] was 50.7% and the “10 nM inhibition” value [29] was 58.6%. For the same binder, the “1 nM inhibition” value [30] was 96.1% and the “10 nM inhibition” value [30] was 97.7%.
